The values that follow come from patent publication US20240124575A1 (SIMCERE ZAIMING PHARMACEUTICAL, published 2024).

For assay [1], the target named is T1, human CD33-His (extracellular domain Asp 18-His 259) (human, UniProt P20138 18-259).
T1 construct: range 18-259; bought protein; also called hCD33-his; human CD33 protein; not shown: His tag
Description: competitive ELISA vs coated S006-NB146-40 2ug/mL; soluble 25ug/ml. As to the method: VHH antibodies and control antibodies with known epitopes were subjected to epitope classification with competitive ELISA. ELISA plates were coated with 2 μg/mL antibodies according to the method in Example 5.1; the human CD33-his protein was subjected to a gradient dilution from 30 μg/mL, and EC80 values (Tables 26-27) were calculated. ELISA plates were coated with 2 μg/mL antibodies; after 25 µg/mL of antibodies to be tested were added, a human CD33-his protein having an EC80 concentration corresponding to each of the antibodies to be tested was then added for incubation for 2 h. The plates were washed 5 times with PBS, then HRP-labeled anti-His antibodies (purchased from GenScript, Cat. No. A00612) were added for incubation for 1 h, and the plates were washed 5 times. A TMB substrate was added at 50 μL/well and incubated at room temperature for 10 min, then a stop solution (1.0 M HCl) was added at 50 μL/well. OD_{450 nm} values were read using an ELISA plate reader (Insight, purchased from PerkinElmer), and the competition rate between the antibodies was calculated according to the OD_{450 nm} values using a formula. The results are shown in FIGS. 12A-12B, the higher the value of the competition rate, the closer the epitopes to which two antibodies bind.
In general terms: ELISA stands for enzyme-linked immunosorbent assay.

The target of assay [2] is T2, human CD33 on CHO-K1 cells (CHO-K1-human CD33) (human, UniProt P20138 18-364).
T2 construct: whole, on cells; stably transfected CHO-K1 clones; also called CHO-K1-hCD33-B8; CHO-K1-human CD33 B8
Description: FACS, CHO-K1-human CD33 cells. As to the method: The desired cells were expanded to a logarithmic growth phase in a T-75 cell culture flask. For adherent cells CHO-K1, the culture medium was removed by pipetting, and the cells were washed twice with a PBS buffer, digested with trypsin, and washed twice with a PBS buffer again after the digestion was stopped. For suspension cells U937, the medium supernatant was discarded by direct centrifugation, and the cell pellet was washed twice with PBS, and then incubated with a buffer containing human Fc Block (purchased from BD, Cat. No. 564220) for 15 min. After the cells obtained in the last step were subjected to cell counting, the cell pellet was resuspended to 2×10⁶ cells/mL with a blocking solution [PBS+2% (w/w) BSA] and added to a 96-well FACS reaction plate at 50 μL/well. The VHH-Fc antibody (a sample to be tested) was added at 50 μL/well, and the plate was incubated on ice for 2 h. […] After the plate was centrifuged and washed 5 times with a PBS buffer, the results were assayed and analyzed by FACS (FACS Canto™, purchased from BD Biosciences), so as to obtain the mean fluorescence intensity (MFI) of cells. Then, analysis was performed by software (GraphPad Prism8), data were fitted, and EC50 values were calculated.
(Flow cytometry measures light scatter and fluorescence of single cells or particles in a stream.)

In assay [3] the target is T3, human CD33-his protein (human, UniProt P20138 18-259).
T3 construct: range 18-259; bought protein; also called hCD33-his; recombinant human CD33-his; not shown: His tag
Description: competition ELISA, coated human CD33-his, vs Biotin-C33B904 at EC80; antibody 125.00 nM. As to the method: (§1) ELISA plates were coated with 2 μg/mL human CD33-his protein according to the method in Example 5.1; the Biotin-C331B904 antibody was subjected to a gradient dilution from 15 μg/mL, and EC80 values (0.18 μg/mL) were calculated. ELISA plates were coated with 2 μg/mL human CD33-his protein; starting from 40 μg/mL, the VHH antibodies to be tested were diluted in a 1:2 dilution ratio to obtain seven concentrations and added to the ELISA plates, and then Biotin-C331904 antibodies with the EC80 concentrations were added for incubation for 2 h. The plates were washed 5 times with PBS and then […] (purchased from Sigma, Cat. No. S2438) were added for incubation for 1 h, and the plates were washed 5 times. A TMB substrate was added at 50 μL/well and incubated at room temperature for 10 min, then a stop solution (1.0 M HCl) was added at 50 μL/well. OD_{450 nm} values were read using an ELISA plate reader (Insight, purchased from PerkinElmer). Then, analysis was performed by software (GraphPad Prism8), and data were fitted for curve plotting. The results are shown in FIGS. 13A-13B and Tables 28 and 29.

The target in assay [4] is T3, human CD33-his protein. Description: competition ELISA, coated human CD33-his, vs Biotin-C33B904 at EC80; antibody 3.91 nM. As to the method: as §1
Assay [5] addresses T3, human CD33-his protein. Description: competition ELISA, coated human CD33-his, vs Biotin-C33B904 at EC80; antibody 0.98 nM. As to the method:
as §1

For assay [6], the target named is T3, human CD33-his protein. Description: SPR (Biacore), antibody captured on Protein A chip, human CD33-his analyte. As to the method:
The sample and running buffer was HBS-EP+ (10 mM HEPES, 150 mM NaCl, 3 mM EDTA, 0.05% surfactant P20) (GE Healthcare; BR-1006-69). The flow cell was set at 25° C. The sample block was set at 16° C. Both were pretreated with the running buffer. In each cycle, first, the antibody to be tested was captured using the Protein A chip, and then a single concentration of CD33 antigen protein was injected. The association and dissociation processes of the antibody with the antigen protein were recorded, and finally, the chip was regenerated using Glycine pH 1.5 (GE Healthcare; BR-1003-54). The association was determined by injecting different concentrations of recombinant human CD33-his in the solution and maintaining for 240 s, wherein the flow rate was 30 μL/min, and the protein was diluted in a 1:1 dilution ratio from 200 nM to obtain 5 concentrations in total. The dissociation phase was monitored for up to 600 s and triggered by switching from the sample solution to the running buffer. The surface was regenerated by washing with 10 mM glycine solution (pH 1.5) at a flow rate of 30 μL/min for 30 s. The difference in bulk refractive index was corrected by subtracting the responses obtained from the […]. Blank injections were also subtracted (=double reference). To calculate the apparent KD and other kinetic parameters, the Langmuir 1:1 model was used.
Background: In SPR one partner is held on a chip, and binding of the other changes the refractive index at the surface.

T3 sequence (P20138 18-259 limits assumed): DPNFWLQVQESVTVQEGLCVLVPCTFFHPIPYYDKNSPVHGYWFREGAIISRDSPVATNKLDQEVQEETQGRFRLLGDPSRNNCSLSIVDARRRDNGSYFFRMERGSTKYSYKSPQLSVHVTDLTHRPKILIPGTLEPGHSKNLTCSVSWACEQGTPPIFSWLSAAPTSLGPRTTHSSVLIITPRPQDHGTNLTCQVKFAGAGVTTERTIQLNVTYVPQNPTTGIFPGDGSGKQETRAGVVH
T2 sequence (P20138 18-364): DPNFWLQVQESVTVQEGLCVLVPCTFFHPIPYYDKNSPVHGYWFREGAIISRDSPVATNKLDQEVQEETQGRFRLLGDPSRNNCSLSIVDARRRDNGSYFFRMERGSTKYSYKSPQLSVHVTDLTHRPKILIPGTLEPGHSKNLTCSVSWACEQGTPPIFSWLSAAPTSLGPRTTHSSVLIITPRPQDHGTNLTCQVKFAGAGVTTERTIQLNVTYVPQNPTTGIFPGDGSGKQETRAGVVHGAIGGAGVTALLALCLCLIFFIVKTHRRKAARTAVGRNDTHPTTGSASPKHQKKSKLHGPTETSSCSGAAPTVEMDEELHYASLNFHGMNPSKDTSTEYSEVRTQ
T1 sequence (P20138 18-259 limits assumed): as the sequence (P20138 18-259 limits assumed) above

B1: C33B904 hIgG1 (antibody, V domains shown)
VH: EVQLVESGGGLVQPGRSLRLSCAASGFTFDDYAMHWVRQAPGKGLEWVSGIGWSGGSIVYADSVKGRFTISRDNAKNSLYLQMNSLRAEDTALYYCAKDSPYGDFFDYWGQGTLVTVSS
VL: DIVMTQSPDSLAVSLGERATINCKSSQTVFYSSNNKNYLAWYQQKPGQPPKLLISWASTRKSGVPDRFSGSGSGTDFTLTVSSLQAEDVAVYYCQHYYSTPYTFGQGTKLEIKR
notes: intact human IgG1; variable regions from US20190382481A1; also called C33B3904; C331B904
The EC50 is the midpoint of the concentration-response curve. A higher EC50 goes with a need for much substance. With B1, in assay [1], the inhibition rate was -5%. Also, in assay [2], the EC50 was 12.5 nM and the “Max MFI” value came to 15000 MFI.

B2: C33B904 (antibody, human IgG1, kappa, V domains shown)
VH: B1 VH
VL: B1 VL
notes: control antibody, intact human IgG1 form; variable regions from US20190382481A1; also called C33B904 hIgG1; C331B904
As a reminder, the Kd is the free concentration of one partner at which half of the binding sites on the other are occupied at equilibrium, for simple one-to-one binding. In general, koff refers to a measure of how fast the partners let go of each other. As usually defined, the kon is the rate constant with which the complex forms. For B2, in the assay with human CD33-his protein [3], the “OD450 (Biotin-C33B904 signal)” value was 0.13. In addition, the “OD450 (Biotin-C33B904 signal)” value in the assay with human CD33-his protein [4] came to 1.77. For the same molecule, in the assay with human CD33-his protein [5], the “OD450 (Biotin-C33B904 signal)” value came out at 2.22. In the assay with human CD33-his protein [6], this molecule had a Kd of 0.079 nM, a koff of 6.54e-05 s⁻¹ and a kon of 828000 M⁻¹ s⁻¹.
